Values of other authors in PMC8298264, “Function of cofactor Akirin2 in the regulation of gene expression in model human neutrophil-like HL60 cells” (Bioscience Reports, 2021).

Test system: AKR2
Design: key: A: Very high confidence in the interaction; B: High confidence in the interaction; D: Moderate confidence in the interaction
Settings: AKR2-interacting proteins (IPs), physical interactome; ref https://doi.org/10.3390/vaccines8010077; cited from earlier work
Source text: Supplement BSR-2021-1120_supp1.zip/BSR-2021-1120_suppST4.xlsx, sheet "BPs related to AKR2-IPs" | column: Predicted Biological Score (PBS)

B1: TOMM34 (protein, UniProt Q15785 1-309, looked up)
Mitochondrial import receptor …: MAPKFPDSVEELRAAGNESFRNGQYAEASALYGRALRVLQAQGSSDPEEESVLYSNRAACHLKDGNCRDCIKDCTSALALVPFSIKPLLRRASAYEALEKYPMAYVDYKTVLQIDDNVTSAVEGINRMTRALMDSLGPEWRLKLPSIPLVPVSAQKRWNSLPSENHKEMAKSKSKETTATKNRVPSAGDVEKARVLKEEGNELVKKGNHKKAIEKYSESLLCSNLESATYSNRALCYLVLKQYTEAVKDCTEALKLDGKNVKAFYRRAQAHKALKDYKSSFADISNLLQIEPRNGPAQKLRQEVKQNLH
- Predicted Biological Score (PBS): A

B2: SORBS3 (protein, UniProt O60504 1-671, looked up)
Vinexin: MQGPPRSLRAGLSLDDFIPGHLQSHIGSSSRGTRVPVIRNGGSNTLNFQFHDPAPRTVCNGGYTPRRDASQHPDPAWYQTWPGPGSKPSASTKIPASQHTQNWSATWTKDSKRRDKRWVKYEGIGPVDESGMPIAPRSSVDRPRDWYRRMFQQIHRKMPDLQLDWTFEEPPRDPRHLGAQQRPAHRPGPATSSSGRSWDHSEELPRSTFNYRPGAFSTVLQPSNQVLRRREKVDNVWTEESWNQFLQELETGQRPKKPLVDDPGEKPSQPIEVLLERELAELSAELDKDLRAIETRLPSPKSSPAPRRAPEQRPPAGPASAWSSSYPHAPYLGSARSLSPHKMADGGSPFLGRRDFVYPSSTRDPSASNGGGSPARREEKKRKAARLKFDFQAQSPKELTLQKGDIVYIHKEVDKNWLEGEHHGRLGIFPANYVEVLPADEIPKPIKPPTYQVLEYGEAVAQYTFKGDLEVELSFRKGEHICLIRKVNENWYEGRITGTGRQGIFPASYVQVSREPRLRLCDDGPQLPTSPRLTAAARSARHPSSPSALRSPADPIDLGGQTSPRRTGFSFPTQEPRPQTQNLGTPGPALSHSRGPSHPLDLGTSSPNTSQIHWTPYRAMYQYRPQNEDELELREGDRVDVMQQCDDGWFVGVSRRTQKFGTFPGNYVAPV
- Predicted Biological Score (PBS): A

B3: SPG21 (protein, UniProt Q9NZD8 1-308, looked up)
Maspardin: MGEIKVSPDYNWFRGTVPLKKIIVDDDDSKIWSLYDAGPRSIRCPLIFLPPVSGTADVFFRQILALTGWGYRVIALQYPVYWDHLEFCDGFRKLLDHLQLDKVHLFGASLGGFLAQKFAEYTHKSPRVHSLILCNSFSDTSIFNQTWTANSFWLMPAFMLKKIVLGNFSSGPVDPMMADAIDFMVDRLESLGQSELASRLTLNCQNSYVEPHKIRDIPVTIMDVFDQSALSTEAKEEMYKLYPNARRAHLKTGGNFPYLCRSAEVNLYVQIHLLQFHGTKYAAIDPSMVSAEELEVQKGSLGISQEEQ
- Predicted Biological Score (PBS): A

B4: TNIP2 (protein, UniProt Q8NFZ5 1-429, looked up)
TNFAIP3-interacting protein 2: MSRDPGSGGWEEAPRAAAALCTLYHEAGQRLRRLQDQLAARDALIARLRARLAALEGDAAPSLVDALLEQVARFREQLRRQEGGAAEAQMRQEIERLTERLEEKEREMQQLLSQPQHEREKEVVLLRRSMAEGERARAASDVLCRSLANETHQLRRTLTATAHMCQHLAKCLDERQHAQRNVGERSPDQSEHTDGHTSVQSVIEKLQEENRLLKQKVTHVEDLNAKWQRYNASRDEYVRGLHAQLRGLQIPHEPELMRKEISRLNRQLEEKINDCAEVKQELAASRTARDAALERVQMLEQQILAYKDDFMSERADRERAQSRIQELEEKVASLLHQVSWRQDSREPDAGRIHAGSKTAKYLAADALELMVPGGWRPGTGSQQPEPPAEGGHPGAAQRGQGDLQCPHCLQCFSDEQGEELLRHVAECCQ
- Predicted Biological Score (PBS): A

B5: RNF181 (protein, UniProt Q9P0P0 1-153, looked up)
E3 ubiquitin-protein ligase …: MASYFDEHDCEPSDPEQETRTNMLLELARSLFNRMDFEDLGLVVDWDHHLPPPAAKTVVENLPRTVIRGSQAELKCPVCLLEFEEEETAIEMPCHHLFHSSCILPWLSKTNSCPLCRYELPTDDDTYEEHRRDKARKQQQQHRLENLHGAMYT
- Predicted Biological Score (PBS): A

B6: RNF123 (protein, UniProt Q5XPI4 2-1314, looked up)
E3 ubiquitin-protein ligase …: ASKGAGMSFSRKSYRLTSDAEKSRVTGIVQEKLLNDYLNRIFSSSEHAPPAATSRKPLNFQNLPEHLDQLLQVDNEEEESQGQVEGRLGPSTVVLDHTGGFEGLLLVDDDLLGVIGHSNFGTIRSTTCVYKGKWLYEVLISSQGLMQIGWCTISCRFNQEEGVGDTHNSYAYDGNRVRKWNVTTTNYGKAWAAGDIVSCLIDLDDGTLSFCLNGVSLGTAFENLSRGLGMAYFPAISLSFKESVAFNFGSRPLRYPVAGYRPLQDPPSADLVRAQRLLGCFRAVLSVELDPVEGRLLDKESSKWRLRGQPTVLLTLAHIFHHFAPLLRKVYLVEAVLMSFLLGIVEKGTPTQAQSVVHQVLDLLWLFMEDYEVQDCLKQLMMSLLRLYRFSPIVPDLGLQIHYLRLTIAILRHEKSRKFLLSNVLFDVLRSVVFFYIKSPLRVEEAGLQELIPTTWWPHCSSREGKESTEMKEETAEERLRRRAYERGCQRLRKRIEVVEELQVQILKLLLDNKDDNGGEASRYIFLTKFRKFLQENASGRGNMPMLCPPEYMVCFLHRLISALRYYWDEYKASNPHASFSEEAYIPPQVFYNGKVDYFDLQRLGGLLSHLRKTLKDDLASKANIVIDPLELQSTAMDDLDEDEEPAPAMAQRPMQALAVGGPLPLPRPGWLSSPTLGRANRFLSTAAVSLMTPRRPLSTSEKVKVRTLSVEQRTREDIEGSHWNEGLLLGRPPEEPEQPLTENSLLEVLDGAVMMYNLSVHQQLGKMVGVSDDVNEYAMALRDTEDKLRRCPKRRKDILAELTKSQKVFSEKLDHLSRRLAWVHATVYSQEKMLDIYWLLRVCLRTIEHGDRTGSLFAFMPEFYLSVAINSYSALKNYFGPVHSMEELPGYEETLTRLAAILAKHFADARIVGTDIRDSLMQALASYVCYPHSLRAVERIPEEQRIAMVRNLLAPYEQRPWAQTNWILVRLWRGCGFGYRYTRLPHLLKTKLEDANLPSLQKPCPSTLLQQHMADLLQQGPDVAPSFLNSVLNQLNWAFSEFIGMIQEIQQAAERLERNFVDSRQLKVCATCFDLSVSLLRVLEMTITLVPEIFLDWTRPTSEMLLRRLAQLLNQVLNRVTAERNLFDRVVTLRLPGLESVDHYPILVAVTGILVQLLVRGPASEREQATSVLLADPCFQLRSICYLLGQPEPPAPGTALPAPDRKRFSLQSYADYISADELAQVEQMLAHLTSASAQAAAASLPTSEEDLCPICYAHPISAVFQPCGHKSCKACINQHLMNNKDCFFCKTTIVSVEDWEKGANTSTTSSAA
- Predicted Biological Score (PBS): A

B7: SIRT1 (protein, UniProt Q96EB6 2-747, looked up)
NAD-dependent protein …: ADEAALALQPGGSPSAAGADREAASSPAGEPLRKRPRRDGPGLERSPGEPGGAAPEREVPAAARGCPGAAAAALWREAEAEAAAAGGEQEAQATAAAGEGDNGPGLQGPSREPPLADNLYDEDDDDEGEEEEEAAAAAIGYRDNLLFGDEIITNGFHSCESDEEDRASHASSSDWTPRPRIGPYTFVQQHLMIGTDPRTILKDLLPETIPPPELDDMTLWQIVINILSEPPKRKKRKDINTIEDAVKLLQECKKIIVLTGAGVSVSCGIPDFRSRDGIYARLAVDFPDLPDPQAMFDIEYFRKDPRPFFKFAKEIYPGQFQPSLCHKFIALSDKEGKLLRNYTQNIDTLEQVAGIQRIIQCHGSFATASCLICKYKVDCEAVRGDIFNQVVPRCPRCPADEPLAIMKPEIVFFGENLPEQFHRAMKYDKDEVDLLIVIGSSLKVRPVALIPSSIPHEVPQILINREPLPHLHFDVELLGDCDVIINELCHRLGGEYAKLCCNPVKLSEITEKPPRTQKELAYLSELPPTPLHVSEDSSSPERTSPPDSSVIVTLLDQAAKSNDDLDVSESKGCMEEKPQEVQTSRNVESIAEQMENPDLKNVGSSTGEKNERTSVAGTVRKCWPNRVAKEQISRRLDGNQYLFLPPNRYIFHGAEVYSDSEDDVLSSSSCGSNSDSGTCQSPSLEEPMEDESEIEEFYNGLEDEPDVPERAGGAGFGTDGDDQEAINEAISVKQEVTDMNYPSNKS
- Predicted Biological Score (PBS): D
